According to the supplement of paper PMC10065799, “High-throughput profiling of sequence recognition by tyrosine kinases and SH2 domains using bacterial peptide display” (eLife, 2023):

Tested on: AncSZ
Experiment: phosphorylation enrichment, bacterial display (enrichment ratio); higher = better substrate or ligand; peptides without Tyr show the background
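Further: 11-residue human phosphosite peptides and single-mutation variants displayed on the E. coli surface, counted by deep sequencing, each peptide's frequency after selection divided by its frequency in the unselected input library; frequency after pTyr selection over input frequency; kinase dosed for 20-30% of maximal phosphorylation in three min.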

Going from GRQGIYTKNER [GPR143_Y231_E233K] to GTHCHYKAPIV [FZD9_Y569_T573I], the phosphorylation enrichment rises from 0.422 to 1.32.

First: KDQGTYEDFVE [MYL6_Y86_YF]
Second: GPQGVYSNKLV [PTPN14_Y506]
The phosphorylation enrichment of the first is higher: 1.31 for the first, 0.568 for the second.

Compared with IGVDSYSVCKR [RPS6KA3_Y433_G431D], VSNFNYFFHRE [KCNA1_Y413_YF] is higher in phosphorylation enrichment: 0.537 for the first, 1.12 for the second.

Compared with QHVPDYRQNGY [PCDHGA1_Y890_V894G], VSVVDYVEPSP [TXNRD2_Y70_A66S] is higher in phosphorylation enrichment: 0.788 for the first, 1.21 for the second.

Compared with FSIDHYLGKEM [G6PD_Y202_R198S_YF], DQIDTYELSGA [DNM1_Y354_G359A] is higher in phosphorylation enrichment: 1.06 for the first, 1.21 for the second.

Going from NNHGNYIVRLG [ETFDH_Y172] to KPVEEYANCHL [TF_Y593], the phosphorylation enrichment rises from 0.619 to 0.96.

First: HFGCVYFGTLL [MET_Y1093_H1094Y_YF]
Second: QFRFIYMAVQH [PTPN11_Y515_YF]
The phosphorylation enrichment of the first is lower: 1.77 for the first, 2.5 for the second.

Compared with LHQSTYQCYDV [SLC7A14_Y693_R695C], EPYKVYRIVPE [IRF8_Y110] is lower in phosphorylation enrichment: 1.82 for the first, 0.746 for the second.

Going from PLEGEYFTLQI [TP53_Y327_D324E] to DVFRQYASLTG [GANAB_Y379], the phosphorylation enrichment falls from 6.22 to 0.568.

Compared with GSRGKYSSGFR [ATM_Y332], SWVVPYEPPEV [TP53_Y220_V216W] is higher in phosphorylation enrichment: 0.512 for the first, 1.44 for the second.

Going from EKSREYDRLYE [PIK3R1_Y463] to LCHELYNTIRD [PBRM1_Y54_V49L], the phosphorylation enrichment falls from 1.32 to 1.21.

Compared with TSESSYYKSLN [NGEF_Y288_A286S], SSLMKYQQNVS [EGFEM1P_Y160_P157L] is lower in phosphorylation enrichment: 0.76 for the first, 0.491 for the second.

First: QKKPRYEIRWK [PDGFRB_Y562]
Second: TTKAKYKTPTY [PLD2_Y573]
The phosphorylation enrichment of the first is higher: 1.96 for the first, 0.473 for the second.

Going from STEVIYQPRRK [STK11_Y36] to GREFIYVDPMQ [PDGFRA_Y574_H570R_YF], the phosphorylation enrichment rises from 0.603 to 1.03.

For AGAKTYKMSMA [CPS1_Y309], the phosphorylation enrichment was 0.389.

Target: EPHB1 (UniProt P54762)
Experiment: as above

Sequence of EPHB1 (P54762 whole entry, looked up): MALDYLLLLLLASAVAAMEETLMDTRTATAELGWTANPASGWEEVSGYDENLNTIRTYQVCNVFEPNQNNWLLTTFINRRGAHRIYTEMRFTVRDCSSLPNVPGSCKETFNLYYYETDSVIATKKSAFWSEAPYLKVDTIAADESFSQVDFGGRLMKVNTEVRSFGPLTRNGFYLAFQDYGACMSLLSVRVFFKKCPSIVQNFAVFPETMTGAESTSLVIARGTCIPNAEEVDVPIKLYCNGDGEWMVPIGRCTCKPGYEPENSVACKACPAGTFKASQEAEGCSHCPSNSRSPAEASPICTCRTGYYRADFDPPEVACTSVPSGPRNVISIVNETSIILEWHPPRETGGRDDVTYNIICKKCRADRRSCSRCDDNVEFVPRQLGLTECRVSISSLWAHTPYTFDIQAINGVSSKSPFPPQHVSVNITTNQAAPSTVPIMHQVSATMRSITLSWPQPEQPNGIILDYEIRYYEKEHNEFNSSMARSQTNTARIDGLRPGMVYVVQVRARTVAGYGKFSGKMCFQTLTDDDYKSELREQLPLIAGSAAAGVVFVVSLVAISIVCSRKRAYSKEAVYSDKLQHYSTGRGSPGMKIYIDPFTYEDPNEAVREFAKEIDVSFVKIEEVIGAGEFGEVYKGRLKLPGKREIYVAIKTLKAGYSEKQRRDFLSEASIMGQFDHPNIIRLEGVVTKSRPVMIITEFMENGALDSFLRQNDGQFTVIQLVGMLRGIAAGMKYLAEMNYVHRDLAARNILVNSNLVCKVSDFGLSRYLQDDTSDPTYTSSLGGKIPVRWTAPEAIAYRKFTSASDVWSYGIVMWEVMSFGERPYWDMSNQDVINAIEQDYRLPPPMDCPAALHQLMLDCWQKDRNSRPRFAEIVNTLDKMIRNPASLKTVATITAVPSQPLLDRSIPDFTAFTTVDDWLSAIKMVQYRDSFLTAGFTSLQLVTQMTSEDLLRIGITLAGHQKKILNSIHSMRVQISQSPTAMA

Going from GRQGIYTKNER [GPR143_Y231_E233K] to GTHCHYKAPIV [FZD9_Y569_T573I], the phosphorylation enrichment rises from 0.357 to 0.513.

Compared with KDQGTYEDFVE [MYL6_Y86_YF], GPQGVYSNKLV [PTPN14_Y506] is lower in phosphorylation enrichment: 0.569 for the first, 0.417 for the second.

First: IGVDSYSVCKR [RPS6KA3_Y433_G431D]
Second: VSNFNYFFHRE [KCNA1_Y413_YF]
The phosphorylation enrichment of the first is lower: 0.402 for the first, 0.642 for the second.

Compared with QHVPDYRQNGY [PCDHGA1_Y890_V894G], VSVVDYVEPSP [TXNRD2_Y70_A66S] is higher in phosphorylation enrichment: 0.484 for the first, 0.595 for the second.

Going from FSIDHYLGKEM [G6PD_Y202_R198S_YF] to DQIDTYELSGA [DNM1_Y354_G359A], the phosphorylation enrichment falls from 0.669 to 0.545.

Compared with NNHGNYIVRLG [ETFDH_Y172], KPVEEYANCHL [TF_Y593] is higher in phosphorylation enrichment: 0.548 for the first, 0.623 for the second.

First: HFGCVYFGTLL [MET_Y1093_H1094Y_YF]
Second: QFRFIYMAVQH [PTPN11_Y515_YF]
The phosphorylation enrichment of the first is lower: 0.917 for the first, 1.06 for the second.

Going from LHQSTYQCYDV [SLC7A14_Y693_R695C] to EPYKVYRIVPE [IRF8_Y110], the phosphorylation enrichment falls from 2.12 to 0.474.

Going from PLEGEYFTLQI [TP53_Y327_D324E] to DVFRQYASLTG [GANAB_Y379], the phosphorylation enrichment falls from 4.24 to 0.422.

Compared with GSRGKYSSGFR [ATM_Y332], SWVVPYEPPEV [TP53_Y220_V216W] is higher in phosphorylation enrichment: 0.318 for the first, 0.553 for the second.

Compared with EKSREYDRLYE [PIK3R1_Y463], LCHELYNTIRD [PBRM1_Y54_V49L] is higher in phosphorylation enrichment: 0.663 for the first, 0.675 for the second.

First: TSESSYYKSLN [NGEF_Y288_A286S]
Second: SSLMKYQQNVS [EGFEM1P_Y160_P157L]
The phosphorylation enrichment of the first is higher: 0.55 for the first, 0.416 for the second.

Compared with QKKPRYEIRWK [PDGFRB_Y562], TTKAKYKTPTY [PLD2_Y573] is lower in phosphorylation enrichment: 0.928 for the first, 0.328 for the second.

First: STEVIYQPRRK [STK11_Y36]
Second: GREFIYVDPMQ [PDGFRA_Y574_H570R_YF]
The phosphorylation enrichment of the first is lower: 0.437 for the first, 3.28 for the second.

AGAKTYKMSMA [CPS1_Y309] gave a phosphorylation enrichment of 0.328.

Target: EPHB2 (UniProt P29323)
Experiment: as above

Sequence of EPHB2 (P29323 whole entry, looked up): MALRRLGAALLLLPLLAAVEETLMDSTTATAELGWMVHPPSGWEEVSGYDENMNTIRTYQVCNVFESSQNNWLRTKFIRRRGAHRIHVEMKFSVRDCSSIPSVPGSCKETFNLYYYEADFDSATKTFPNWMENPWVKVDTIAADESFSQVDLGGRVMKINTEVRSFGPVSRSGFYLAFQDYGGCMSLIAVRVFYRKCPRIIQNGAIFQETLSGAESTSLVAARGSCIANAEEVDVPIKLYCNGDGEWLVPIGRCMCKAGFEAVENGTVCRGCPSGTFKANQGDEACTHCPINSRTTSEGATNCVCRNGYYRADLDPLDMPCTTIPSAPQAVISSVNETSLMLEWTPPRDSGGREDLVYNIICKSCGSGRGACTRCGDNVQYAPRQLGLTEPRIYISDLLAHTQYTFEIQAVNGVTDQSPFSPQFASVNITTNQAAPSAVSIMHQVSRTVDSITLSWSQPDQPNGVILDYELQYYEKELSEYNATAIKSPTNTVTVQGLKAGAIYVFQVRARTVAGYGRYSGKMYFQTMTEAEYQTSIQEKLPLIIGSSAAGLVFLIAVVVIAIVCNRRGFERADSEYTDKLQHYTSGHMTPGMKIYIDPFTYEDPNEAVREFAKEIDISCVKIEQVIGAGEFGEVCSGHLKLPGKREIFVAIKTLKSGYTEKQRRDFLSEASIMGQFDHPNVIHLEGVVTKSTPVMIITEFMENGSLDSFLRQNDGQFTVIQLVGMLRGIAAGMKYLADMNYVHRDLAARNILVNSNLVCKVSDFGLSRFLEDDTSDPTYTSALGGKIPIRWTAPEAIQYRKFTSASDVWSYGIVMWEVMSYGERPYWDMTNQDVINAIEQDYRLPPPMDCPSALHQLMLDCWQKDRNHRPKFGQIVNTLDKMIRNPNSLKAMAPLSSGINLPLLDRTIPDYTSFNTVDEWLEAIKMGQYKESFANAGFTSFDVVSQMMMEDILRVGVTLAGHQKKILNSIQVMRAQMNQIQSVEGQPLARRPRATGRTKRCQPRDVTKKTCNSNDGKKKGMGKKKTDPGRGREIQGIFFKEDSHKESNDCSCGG

Going from GRQGIYTKNER [GPR143_Y231_E233K] to GTHCHYKAPIV [FZD9_Y569_T573I], the phosphorylation enrichment rises from 0.329 to 0.532.

Going from KDQGTYEDFVE [MYL6_Y86_YF] to GPQGVYSNKLV [PTPN14_Y506], the phosphorylation enrichment falls from 0.59 to 0.502.

Compared with IGVDSYSVCKR [RPS6KA3_Y433_G431D], VSNFNYFFHRE [KCNA1_Y413_YF] is higher in phosphorylation enrichment: 0.418 for the first, 0.509 for the second.

Going from QHVPDYRQNGY [PCDHGA1_Y890_V894G] to VSVVDYVEPSP [TXNRD2_Y70_A66S], the phosphorylation enrichment falls from 0.548 to 0.547.

Compared with FSIDHYLGKEM [G6PD_Y202_R198S_YF], DQIDTYELSGA [DNM1_Y354_G359A] is lower in phosphorylation enrichment: 0.61 for the first, 0.554 for the second.

Going from NNHGNYIVRLG [ETFDH_Y172] to KPVEEYANCHL [TF_Y593], the phosphorylation enrichment falls from 0.563 to 0.549.

Compared with HFGCVYFGTLL [MET_Y1093_H1094Y_YF], QFRFIYMAVQH [PTPN11_Y515_YF] is higher in phosphorylation enrichment: 0.699 for the first, 0.704 for the second.

First: LHQSTYQCYDV [SLC7A14_Y693_R695C]
Second: EPYKVYRIVPE [IRF8_Y110]
The phosphorylation enrichment of the first is higher: 2.85 for the first, 0.54 for the second.

Going from PLEGEYFTLQI [TP53_Y327_D324E] to DVFRQYASLTG [GANAB_Y379], the phosphorylation enrichment falls from 5.04 to 0.44.

Going from GSRGKYSSGFR [ATM_Y332] to SWVVPYEPPEV [TP53_Y220_V216W], the phosphorylation enrichment rises from 0.36 to 0.631.

Compared with EKSREYDRLYE [PIK3R1_Y463], LCHELYNTIRD [PBRM1_Y54_V49L] is higher in phosphorylation enrichment: 0.68 for the first, 0.785 for the second.

First: TSESSYYKSLN [NGEF_Y288_A286S]
Second: SSLMKYQQNVS [EGFEM1P_Y160_P157L]
The phosphorylation enrichment of the first is higher: 0.668 for the first, 0.46 for the second.

Compared with QKKPRYEIRWK [PDGFRB_Y562], TTKAKYKTPTY [PLD2_Y573] is lower in phosphorylation enrichment: 0.919 for the first, 0.313 for the second.

Compared with STEVIYQPRRK [STK11_Y36], GREFIYVDPMQ [PDGFRA_Y574_H570R_YF] is higher in phosphorylation enrichment: 0.527 for the first, 5.79 for the second.

For AGAKTYKMSMA [CPS1_Y309], the phosphorylation enrichment was 0.264.

Target: FGFR1 (UniProt P11362)
Experiment: as above

Sequence of FGFR1 (P11362 whole entry, looked up): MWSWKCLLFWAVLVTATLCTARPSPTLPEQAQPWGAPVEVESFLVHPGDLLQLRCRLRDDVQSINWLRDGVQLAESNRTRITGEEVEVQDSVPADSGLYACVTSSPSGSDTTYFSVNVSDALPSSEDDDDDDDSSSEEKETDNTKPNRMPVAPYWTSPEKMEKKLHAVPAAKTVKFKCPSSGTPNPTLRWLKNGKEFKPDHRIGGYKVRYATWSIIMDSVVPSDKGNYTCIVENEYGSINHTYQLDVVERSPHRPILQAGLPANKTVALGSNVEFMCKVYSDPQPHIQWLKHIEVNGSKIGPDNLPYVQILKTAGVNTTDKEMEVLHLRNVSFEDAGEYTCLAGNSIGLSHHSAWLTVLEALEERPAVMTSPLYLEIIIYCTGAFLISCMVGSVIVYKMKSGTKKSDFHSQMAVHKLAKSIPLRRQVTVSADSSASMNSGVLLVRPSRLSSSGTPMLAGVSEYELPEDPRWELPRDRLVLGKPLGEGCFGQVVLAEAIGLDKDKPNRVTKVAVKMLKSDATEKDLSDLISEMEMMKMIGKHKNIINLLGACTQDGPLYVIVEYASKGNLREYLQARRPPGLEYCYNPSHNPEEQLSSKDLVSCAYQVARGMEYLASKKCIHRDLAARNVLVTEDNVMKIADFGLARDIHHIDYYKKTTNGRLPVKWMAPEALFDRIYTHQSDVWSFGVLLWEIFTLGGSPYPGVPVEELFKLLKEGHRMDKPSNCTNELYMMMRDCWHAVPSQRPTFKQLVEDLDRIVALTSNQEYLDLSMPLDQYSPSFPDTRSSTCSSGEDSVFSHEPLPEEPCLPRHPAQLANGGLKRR

Compared with GRQGIYTKNER [GPR143_Y231_E233K], GTHCHYKAPIV [FZD9_Y569_T573I] is higher in phosphorylation enrichment: 0.447 for the first, 0.531 for the second.

Compared with KDQGTYEDFVE [MYL6_Y86_YF], GPQGVYSNKLV [PTPN14_Y506] is lower in phosphorylation enrichment: 0.906 for the first, 0.472 for the second.

First: IGVDSYSVCKR [RPS6KA3_Y433_G431D]
Second: VSNFNYFFHRE [KCNA1_Y413_YF]
The phosphorylation enrichment of the first is lower: 0.381 for the first, 0.685 for the second.

Going from QHVPDYRQNGY [PCDHGA1_Y890_V894G] to VSVVDYVEPSP [TXNRD2_Y70_A66S], the phosphorylation enrichment rises from 0.52 to 0.804.

Going from FSIDHYLGKEM [G6PD_Y202_R198S_YF] to DQIDTYELSGA [DNM1_Y354_G359A], the phosphorylation enrichment falls from 0.579 to 0.475.

Going from NNHGNYIVRLG [ETFDH_Y172] to KPVEEYANCHL [TF_Y593], the phosphorylation enrichment rises from 0.456 to 0.61.

First: HFGCVYFGTLL [MET_Y1093_H1094Y_YF]
Second: QFRFIYMAVQH [PTPN11_Y515_YF]
The phosphorylation enrichment of the first is higher: 1.01 for the first, 0.544 for the second.

Going from LHQSTYQCYDV [SLC7A14_Y693_R695C] to EPYKVYRIVPE [IRF8_Y110], the phosphorylation enrichment falls from 1.12 to 0.521.

First: PLEGEYFTLQI [TP53_Y327_D324E]
Second: DVFRQYASLTG [GANAB_Y379]
The phosphorylation enrichment of the first is higher: 18.5 for the first, 0.395 for the second.

Going from GSRGKYSSGFR [ATM_Y332] to SWVVPYEPPEV [TP53_Y220_V216W], the phosphorylation enrichment falls from 0.657 to 0.599.

Going from EKSREYDRLYE [PIK3R1_Y463] to LCHELYNTIRD [PBRM1_Y54_V49L], the phosphorylation enrichment rises from 0.61 to 0.973.

First: TSESSYYKSLN [NGEF_Y288_A286S]
Second: SSLMKYQQNVS [EGFEM1P_Y160_P157L]
The phosphorylation enrichment of the first is higher: 0.64 for the first, 0.321 for the second.

Compared with QKKPRYEIRWK [PDGFRB_Y562], TTKAKYKTPTY [PLD2_Y573] is lower in phosphorylation enrichment: 0.756 for the first, 0.287 for the second.

Compared with STEVIYQPRRK [STK11_Y36], GREFIYVDPMQ [PDGFRA_Y574_H570R_YF] is higher in phosphorylation enrichment: 0.424 for the first, 7.2 for the second.

For AGAKTYKMSMA [CPS1_Y309], the phosphorylation enrichment was 0.309.
